Results: the supplement of paper PMC12042874
± gives the uncertainty stated by the source.

assay: amyloid nucleation score (Sup35N fusion, yeast selection) (log enrichment); library NNK3; higher = more nucleation; inactive = no reads after selection
Summary of the method: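 Plasmid inserts were Illumina-sequenced at input and output from psi-negative yeast expressing Sup35N fused to peptides of 20 random codons. The yeast were induced with 100 μM copper sulfate for 24 hours and grown 7 days at 30°C on medium lacking adenine and uracil, and sequences with under 100 input reads were excluded. Nucleation score is the DiMSum log enrichment of output over input reads, centred on the mode score of non-aggregating sequences.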

Amyloid nucleation score, -0.108 ± 0.51:
EGRFLKLFWSGSL

Amyloid nucleation score, 0.76 ± 0.14:
EVGCV

Amyloid nucleation score, 1.39 ± 0.15:
FCGGVAFMMVNVERVRTRRE

Amyloid nucleation score, -0.249 ± 0.48:
FCATRTKVGLHGYASCEDCG

Amyloid nucleation score, 1.73 ± 0.12:
FARVSVESRGGNVTFACLCI

Amyloid nucleation score, 0.435 ± 0.48:
FFAILHLRVNARMCYGNGAY

Amyloid nucleation score, 1.27 ± 0.12:
FDNFADNRLNKVSYKYQT

Amyloid nucleation score, 0.724 ± 0.18:
ELLKPCNVCYRWYNTHALLV

Amyloid nucleation score, -1.05 ± 1.9:
ERQVYMVLGSICRKPTMERS

Amyloid nucleation score, -0.158 ± 0.83:
EPESTRMGLSTTILPVFRCL

Amyloid nucleation score, 0.932 ± 0.1:
FDIIVQITYHVWNMNVHF

Amyloid nucleation score, -0.002 ± 0.32:
DVNFSLC

Amyloid nucleation score, 2.02 ± 0.064:
EGFFYCCHFFRLYYNVVVLL

Amyloid nucleation score, -0.042 ± 0.98:
EVVGVYRERMSSFLLQGVLL

Amyloid nucleation score, -0.732 ± 0.59:
DSQLFKICGLVCTTYVALCF

Amyloid nucleation score, 1.58 ± 0.1:
EIMGICTLTVIFCKC

Amyloid nucleation score, 1.44 ± 0.074:
ESDFRLYSCFDWNVVAMNYR

Amyloid nucleation score, 1.54 ± 0.077:
DWRLRSFICRAVVVCCINGD

Amyloid nucleation score, inactive:
DNYMRILGLSYPGDFISNFW
DPIYVANARNHRLS
DPKTSYNADLAIGSCLLIDF
DPSNACPWGR
DPTSLGRQRLTRDKIPQNWS
DPVNLRC
DQEVC
DQIYSECLV
DQYLTVSHKTTTFRMCPQSG
DRCNVGRYLG
DRFLLFFH
DRGFGYGSITKGINA
DRNEQCDSL
DRRYEGGRKVQSYTVARPWS
DRSIS
DRYDSVYEDGLLLLMFFDHV
DSADVMIAYASVVVVTIECC
DSCTEVFVKGVTRSVIVGKG
DSFSTDCVFYEIMCSEVRLA
DSHFKVYVPRQLREAREPVK
DSLRWDYRL
DSNGYKEGVDQNSGAKNTNK
DSRLSAEYMVRMGKVYIDDS
DSSMIDRAENAH
DSVMVYIRFIAMSSPQKG
DSYCGLRDEWITRWLGCRWM
DTLYIASYEAVSGLRSPYER
DTRGTARKPKSLSTRLEIRV
DTYMISNVAGNSRYALHGFV
DVDFPSFAGFMVTISIGIFV
DVDRTSCGGVSVRV
DVLLARCYNCLSAFRLNSLC
DVNGR
DVYSYKFDR
DWEARCCREVTGNGVFESQK
DWRQVYAYENSLWTVFSVWD
DWTWMMS
DYGMLCSLLSGDISNSEVGI
DYIRRWLVYAYDKVFCRLTV
DYISPYCS
DYRTH
DYTMVKLLIGLSGIRTPVVR
DYVAGN
EAKMMRDLSVLVGMPYIMTN
EALLSSLIIFIDQRGVCEFV
EAVSDLNVGPAVRCGG
ECDHSCGRWNWIN
ECLMDGSTAFSMMFFYNYML
EDCRSR
EDLNPSSVLYRPSIDFM
EDRSHVAYTFFSALAQVT
EEGATVRTPLATRPGRTLK
EFATLAEPDVIYYFLVFYCS
EFHCSYLVIWYG
EFIALSVFLLNFVSCLWSNV
EFLGFCFPIAGYFLKDEKIG
EFPASNLSMLGWN
EGKIHNSRLGYFQRRLIVS
EGPNTVNCPTAS
EGSEGSDMSRTFFYICYFIL
EGSSSLYCSELRFV
EHEFYTKDNFLRGIFYNTNL
EILVVVPIAGEMSIVFMRGW
EISSVAAYGSN
EIVTRERIPEWYSLLLMGLP
EKFMPHTELLNVWGLRQILM
ELAHKIMAM
ELGMQSNGSSNDRLERRRIR
ELIKCFFYYNDVGV
ELRTNYRKLLSSQAEVGCMV
ELSANTSFTNSHMTMTTKLF
ELVQKGHGIEWERHGVLFGE
EMAEAGTFEGYSLSVSVSAD
EMCRN
EMLKVLVHS
EMMLWSFNREFMTFYTRSVD
ENMIRFLRDSLCGSFYNLPL
ENPVSCKAIYYTVSIITSFS
ENSGWSKRVFSSFFMIAMMY
EQSTRKGNR
ERARAAWSNGKAGLLWSGPG
ERIIFYCNRVRRMLYGGLVR
ERVKWDKRMHPVDHWHVTVS
ERVTRSMWTVGKRYRTGK
ESCRWLLVFKMVCWQ
ESIVVRF
ESLATNQVDMFSLSVRIFGP
ESLEMVWPRAMR
ESNGVSGPAQMERDTVPEVP
ESSRRYEVCCLMW
ESVSNSYVQTKWEYQLC
ETESATQPVTVIGVSELIRL
ETGYKCAKGFYRCTGRGMVW
ETKSCWQL
ETMVIDWCSTVDRVR
ETYYFSVGFFY
EVLLFVFKEGTHLVGLW
EVLYR
EVSFDNLRGWH
EVSGYINMR
EVSLFVTHIL
EVYFKMAQPLLHWDYERMQV
EWKVLYFFGDAFRLFNRWSG
EWVALNSSYLWYCPVM
EWVANPSFGYAEWLLV
EYLLSSMRLSVILSAWYARC
EYPFFIKSQGR
EYSVRADPGREMNGEISAWV
FACFAVIILHVIMYVRMSSV
FACRVGGEHGGV
FAGDLRDCWFLSFV
FAISSILSMDAPGLDQIDRF
FATVDDMSTGFRYIFLITRA
FAVDFLCHVS
FCEPDWNEMGMDFVRCGPSL
FCFQAFF
FCKMVFLGTAVRCVVKLQSV
FCLMHRRWMVVCACIYRWLK
FCLPICFD
FCMGLHSWNSNGRFCAVCTY
FCRIAVMFKSNQELYRMDNG
FCTVNH
FCYGSFGGLRELYCC
FDFESRKLVVGICGCSQAGL
FDLGGLLPL
FDNKQGSFLKVLTFNFARVA
FDSLFYCGYTYHYQVARKFR
FDTVVLCWVIGIRIGPHNAL
FEIECNNGSGASTRLTSRIN
FEMPLMWYCGGFYSSPLLCK
FEYEKMLKAYGEGVIGSWLF
FEYLSMYELGISVE
FEYLSMYELGISVMSTAH
FFASRENPSFHFVSFWTYTW
FFERSR

Amyloid nucleation score, 1.87 ± 0.11:
FCRQCNIVLFDQSVSL

Amyloid nucleation score, 1.92 ± 0.095:
ECYMVCFDSCSNIMFVLDLE

Amyloid nucleation score, 0.528 ± 0.22:
EGARSGKENGSGKPYRPLGV

Amyloid nucleation score, 0.893 ± 0.12:
DSMCRYV

Amyloid nucleation score, 2.27 ± 0.064:
FFALPDLALYNFFFCNPHYL

Amyloid nucleation score, 0.092 ± 0.72:
FAGCTVGLTNYKRLWICVN

Amyloid nucleation score, 0.741 ± 0.28:
EGGCYSPKHG
